How the values were obtained:
[1] = biological target: type 2 IGF receptor on H35 (rat hepatoma) cells (rat); assay: displacement of 125I-IGF-II from H35 cells (type 2 IGF receptor); refolded preparation
[2] = biological target: type 2 IGF receptor on H35 (rat hepatoma) cells (rat); assay: displacement of 125I-IGF-II from H35 cells (type 2 IGF receptor); secreted preparation
[3] = biological target: insulin receptor on H35 cells (rat) (UniProt P15127); assay: displacement of 125I-insulin from H35 cells (insulin receptor)
[4] = biological target: type 2 IGF receptor on H35 (rat hepatoma) cells (rat); assay: displacement of 125I-IGF-II from H35 cells (type 2 IGF receptor)

IGF-II (Q^37 Q^38) (ligand), sequence (chain): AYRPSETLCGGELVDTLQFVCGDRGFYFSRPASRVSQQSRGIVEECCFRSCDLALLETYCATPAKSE
recombinant IGF-II from a commercial supplier (Bachem), reference standard (ligand), sequence (chain): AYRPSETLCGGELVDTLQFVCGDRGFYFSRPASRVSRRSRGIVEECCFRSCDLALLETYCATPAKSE

In the case of IGF-II (Q^37 Q^38) (ligand), the IC50 [1] was 0.06 µg/mL and the IC50 [2] was 0.03 µg/mL.
In the case of insulin (ligand), the IC50 [3] was 0.0048 µg/mL.
Work on “recombinant IGF-II from a commercial supplier (Bachem), reference standard (ligand)” yielded an IC50 [4] of 0.018 µg/mL.
Substance “wild-type IGF-II, refolded material (made by the HRP fusion route, pSD28, cyanogen bromide cleavage and refolding) (ligand)” has an IC50 [4] of 0.03 µg/mL.

From patent US5854025
